# This sample holds only a part of the variants without activity.
# What was measured:
# biotinyl-Val-oxazolone = assay: self-aminoacylation, catalytic enhancement (BVO) (fold over background); higher = more active; k-Seq, kA / k0A0; sequences stand for … in GGGAAUGGAUCCACAUCUACGAAUUC…UUCACUGCAGACUUGACGAAGCUG
# Summary of the method: (§1)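 Each biotinyl-aminoacyl-oxazolone, at 2–1250 μM, was incubated with mutagenized RNA pools (0.43 μM) carrying a 21-nt variable region. The 50 μL reactions contained HEPES/NaCl/KCl/MgCl2/CaCl2 buffer with 5% acetonitrile at pH 6.9–7.0 and ran for 90 minutes at room temperature. After streptavidin capture, RNA was measured by qPCR in triplicate and by Illumina sequencing, and catalytic enhancement was calculated as median kA over the uncatalyzed rate from a pseudo-first-order fit of per-sequence fraction reacted.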
# biotinyl-Trp-oxazolone = assay: self-aminoacylation, catalytic enhancement (BWO) (fold over background); higher = more active; k-Seq, kA / k0A0; sequences stand for … in GGGAAUGGAUCCACAUCUACGAAUUC…UUCACUGCAGACUUGACGAAGCUG
# Summary of the method: as §1
# biotinyl-Met-oxazolone = assay: self-aminoacylation, catalytic enhancement (BMO) (fold over background); higher = more active; k-Seq, kA / k0A0; sequences stand for … in GGGAAUGGAUCCACAUCUACGAAUUC…UUCACUGCAGACUUGACGAAGCUG
# Summary of the method: as §1
# biotinyl-Leu-oxazolone = assay: self-aminoacylation, catalytic enhancement (BLO) (fold over background); higher = more active; k-Seq, kA / k0A0; sequences stand for … in GGGAAUGGAUCCACAUCUACGAAUUC…UUCACUGCAGACUUGACGAAGCUG
# Summary of the method: as §1
# biotinyl-Ile-oxazolone = assay: self-aminoacylation, catalytic enhancement (BIO) (fold over background); higher = more active; k-Seq, kA / k0A0; sequences stand for … in GGGAAUGGAUCCACAUCUACGAAUUC…UUCACUGCAGACUUGACGAAGCUG
# Summary of the method: as §1
# biotinyl-Phe-oxazolone = assay: self-aminoacylation, catalytic enhancement (BFO) (fold over background); higher = more active; k-Seq, kA / k0A0; sequences stand for … in GGGAAUGGAUCCACAUCUACGAAUUC…UUCACUGCAGACUUGACGAAGCUG
# Summary of the method: as §1
Sequence,self-aminoacylation (biotinyl-Val-oxazolone),self-aminoacylation (biotinyl-Trp-oxazolone),self-aminoacylation (biotinyl-Met-oxazolone),self-aminoacylation (biotinyl-Leu-oxazolone),self-aminoacylation (biotinyl-Ile-oxazolone),self-aminoacylation (biotinyl-Phe-oxazolone)
AUGACUCUGGUCAUCGAGUGA [Fam2.1 aminoacylation ribozyme variant],2.75,5.56,4.86,5.16,2.62,23.2
AAGUUUGCUAAGAGUCGCAAA [Fam3.1 aminoacylation ribozyme variant],0.889,1.12,1.25,0.88,1.01,2.02
AAGUUCGCUAAUAUUCGCAAG [Fam3.1 aminoacylation ribozyme variant],1.65,1.25,1.36,1.84,1.71,2.16
CCAGAUUUCAAGCAAUCGGUC [Fam1B.1 aminoacylation ribozyme variant],1.4,2.91,1.48,1.38,1.5,3.36
AUUACCCUGGUCAUGGAAUGA [Fam2.1 aminoacylation ribozyme variant],1.21,2.08,1.53,1.17,1.19,1.95
CUUCACCUAGGUCCUCGGGUG [Fam2.2 aminoacylation ribozyme variant],4.26,6.69,6.74,7.45,3.4,34.1
AUUCACCUAGGUCUUUGGGUG [Fam2.2 aminoacylation ribozyme variant],4.09,6.83,6.91,9.98,4.28,56.1
AUUCAACUAGGUGAUCGGGUG [Fam2.2 aminoacylation ribozyme variant],2.76,4.01,3.11,4.01,3.02,21.9
AGUACUCUGGUCAUCGAGUGA [Fam2.1 aminoacylation ribozyme variant],3.01,3.97,4.15,3.94,3.14,11.4
AAGUUUGAUAAUAGUCCCAAG [Fam3.1 aminoacylation ribozyme variant],0.515,0.489,0.47,0.423,0.613,0.838
AUUCAUCGAGGUCAUCGGGUG [Fam2.2 aminoacylation ribozyme variant],6.97,10.1,12,14.9,7.05,83.3
AUUACCCUAGUCAUCGAGUAA [Fam2.1 aminoacylation ribozyme variant],1.24,0.823,1.36,1.19,1.28,0.698
AUUGAACUAGGUCAUCGGGUG [Fam2.2 aminoacylation ribozyme variant],3.28,5.03,4.33,4.62,3.36,30
CUACUUCAAACAAUCGGCGUG [Fam1A.1 aminoacylation ribozyme variant],3.12,5.22,4.44,6.1,3.35,6.45
CUUCACCUAGGUAAUCGGGUG [Fam2.2 aminoacylation ribozyme variant],1.65,2.7,2.65,2.68,1.59,1.56
CCACACUUCAAGCAAUCCUUC [Fam1B.1 aminoacylation ribozyme variant],0.899,0.533,0.649,0.44,0.89,1.19
AUUACCCUGGGCAACGAGUGA [Fam2.1 aminoacylation ribozyme variant],4,10.3,7.64,10.3,3.81,57.4
AAGUUUGGUAAUAGUCGCAAA [Fam3.1 aminoacylation ribozyme variant],1.44,1.75,1.66,1.44,1.88,1.72
AUUACCCUGGUCAUAGAGUGG [Fam2.1 aminoacylation ribozyme variant],1.43,1.18,2.18,2.31,1.37,3.37
ACGUUUGGUAAUAGUCGCAAG [Fam3.1 aminoacylation ribozyme variant],1.55,2.45,1.54,2.1,1.75,2.95
CUACUCCAAAAAAUCGGUCUG [Fam1A.1 aminoacylation ribozyme variant],0.846,1.06,0.674,0.857,0.894,1.33
AAGUUUGCUAUUAGUCGCUAG [Fam3.1 aminoacylation ribozyme variant],0.85,0.805,1.01,0.815,0.864,1.16
AUGUUAGCUAAUAGUCGCAAG [Fam3.1 aminoacylation ribozyme variant],1.29,0.993,1.45,1.39,1.57,1.84
CCACAGUUCAUGCAAUCGGUC [Fam1B.1 aminoacylation ribozyme variant],1.12,0.884,0.972,1.16,1.1,0.779
AUAACCCUGGUCAUCGAGAGA [Fam2.1 aminoacylation ribozyme variant],0.839,0.804,0.604,0.822,1.01,1.12
AUUACCCUGGUCAUCUUGUGA [Fam2.1 aminoacylation ribozyme variant],2.33,4.57,4.75,4.41,2.27,22.6

Sequence,self-aminoacylation (biotinyl-Val-oxazolone),self-aminoacylation (biotinyl-Trp-oxazolone),self-aminoacylation (biotinyl-Met-oxazolone),self-aminoacylation (biotinyl-Leu-oxazolone),self-aminoacylation (biotinyl-Ile-oxazolone),self-aminoacylation (biotinyl-Phe-oxazolone)
CCACACUUCAAGCAAUCAGUG [Fam1B.1 aminoacylation ribozyme variant],2.83,2.99,3.58,4.36,3,6.8
CCAUACUUCAAGCGAUCGGUC [Fam1B.1 aminoacylation ribozyme variant],1.25,0.926,1.02,0.976,1.15,1.17
AUUACCCUGGUGCUCGAGUGA [Fam2.1 aminoacylation ribozyme variant],2.38,5.2,3.93,4.67,2.14,25
AUUACCCUGGUCAUCGAGAUA [Fam2.1 aminoacylation ribozyme variant],2.2,3.19,3.42,3.19,1.78,7.71
AAGUUUGCUACUAGUCCCAAG [Fam3.1 aminoacylation ribozyme variant],0.759,0.786,0.931,0.899,0.894,0.773
GUACUUCAAACACUCGGUCUG [Fam1A.1 aminoacylation ribozyme variant],1.3,1.91,1.31,1.64,1.5,5.9
AUCACCCUUGUCAUCGAGUGA [Fam2.1 aminoacylation ribozyme variant],4.91,10.7,9.48,10.1,4.65,59.7
CCACACUUCAAUCAACCGGUC [Fam1B.1 aminoacylation ribozyme variant],1.02,1.22,0.665,1.06,0.862,0.923
CCACACUUCAAGUAAUCGGUA [Fam1B.1 aminoacylation ribozyme variant],0.929,0.708,1.09,1.17,1.01,0.884
CCAAACUUCAAGCGAUCGGUC [Fam1B.1 aminoacylation ribozyme variant],1.35,1.25,1.11,1.32,1.1,1.09
CCACUUCAAACAAUCGGGCUG [Fam1A.1 aminoacylation ribozyme variant],3.05,27.2,2.13,2.63,2.12,27.3
CCAAACUUCAAGCAAUUGGUC [Fam1B.1 aminoacylation ribozyme variant],0.828,0.886,0.81,0.767,0.759,1.1
AUUACCCUAGUCAACGAGUGA [Fam2.1 aminoacylation ribozyme variant],3.26,6.9,5.11,5.35,3.09,25.6
AAGUUUGCUAUUAGUCCCAAG [Fam3.1 aminoacylation ribozyme variant],1.02,2,0.99,1.04,0.989,1.45
CUACUUCGAACAACCGGUCUG [Fam1A.1 aminoacylation ribozyme variant],1.21,0.949,0.734,0.836,0.822,0.394
AUUACCCCGGUCAUCGAGAGA [Fam2.1 aminoacylation ribozyme variant],0.651,1.07,0.8,0.708,0.935,1.03
CUACUUGAAACAAUCGGUCUG [Fam1A.1 aminoacylation ribozyme variant],0.779,0.631,0.788,0.707,0.766,0.652
UUUACCCUGGUCAUCUAGUGA [Fam2.1 aminoacylation ribozyme variant],4.43,10.9,8.71,8.63,4.72,46.3
AUCCACCUAGGUCAUCGGGUA [Fam2.2 aminoacylation ribozyme variant],18.1,26.5,39.4,53.2,20.2,275
AUUACCCAGGUCAUCCAGUGA [Fam2.1 aminoacylation ribozyme variant],3.14,6.41,5.32,5.76,3.13,24.2
AUCACCCAGGUCAUCGAGUGA [Fam2.1 aminoacylation ribozyme variant],4.61,8.46,7.75,8.69,4.04,30.4
UCACACUUCAAGCAAGCGGUC [Fam1B.1 aminoacylation ribozyme variant],1.06,0.746,1.02,0.991,0.965,0.807
AUUCACCUAGUUCAUCGCGUG [Fam2.2 aminoacylation ribozyme variant],2.99,5.66,4.88,6.91,3.27,35.7
AAGUUUGAUAAUACUCGCAAG [Fam3.1 aminoacylation ribozyme variant],0.511,0.52,0.617,0.493,0.638,0.788
AUACACCUAGGUAAUCGGGUG [Fam2.2 aminoacylation ribozyme variant],2.18,3.83,2.84,2.07,1.93,12.3

# From the supplement of paper PMC9233669
